Laboratory results from patent US20070286858A1 (Pfizer, published 2007).

T1: rhVCAM-1 (human, UniProt P19320 25-698)
T1 sequence (looked up): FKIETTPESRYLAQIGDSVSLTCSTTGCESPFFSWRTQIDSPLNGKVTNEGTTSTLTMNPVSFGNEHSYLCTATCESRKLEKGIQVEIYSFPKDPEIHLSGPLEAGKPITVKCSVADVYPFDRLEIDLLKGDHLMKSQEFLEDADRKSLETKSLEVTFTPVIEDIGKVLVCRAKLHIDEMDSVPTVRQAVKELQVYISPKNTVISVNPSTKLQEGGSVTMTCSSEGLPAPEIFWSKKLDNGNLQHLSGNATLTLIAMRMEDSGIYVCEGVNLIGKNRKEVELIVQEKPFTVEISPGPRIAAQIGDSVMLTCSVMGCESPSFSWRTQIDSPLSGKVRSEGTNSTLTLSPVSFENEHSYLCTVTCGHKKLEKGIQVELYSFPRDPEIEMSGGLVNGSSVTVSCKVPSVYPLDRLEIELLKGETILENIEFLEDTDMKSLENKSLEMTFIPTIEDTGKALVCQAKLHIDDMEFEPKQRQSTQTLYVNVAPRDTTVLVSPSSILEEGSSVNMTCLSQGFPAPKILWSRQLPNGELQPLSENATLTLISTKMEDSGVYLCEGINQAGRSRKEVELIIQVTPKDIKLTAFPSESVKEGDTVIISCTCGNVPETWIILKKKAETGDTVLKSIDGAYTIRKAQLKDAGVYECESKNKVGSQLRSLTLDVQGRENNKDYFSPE


Experiments:
hLox1-Fc = hLox1-Fc (human, UniProt P78380 61-273); experiment: direct binding ELISA, receptor coated at 1 µg/ml, antibody at 20 µg/ml
Experimental: (§1) These receptors were chosen because they are cell-surface expressed, like RAGE, and their interaction with ligand is similarly dependent on charge. […] ELISA plates were coated overnight with 1 μg/ml of the listed receptor proteins.

rhNCAM-1 = rhNCAM-1 (human, UniProt P13591-3 20-603, limits assumed); experiment: as above
Experimental: as §1

rhVCAM-1 = biological target: T1, rhVCAM-1; experiment: as above
Experimental: as §1

[1] = biological target: T2, human RAGE-Fc fusion protein (human, UniProt Q15109 23-344); experiment: as above
T2 construct: also called hRAGE-Fc; huRAGE-Fc; not shown: Fc domain of human IgG
Experimental: as §1

[2] = biological target: rhTLR4 (C-terminal His tag) (human, UniProt O00206 24-631); experiment: as above
Experimental: as §1

rhICAM-1-Fc = biological target: T3, rhICAM-1-Fc (human, UniProt P05362 28-480); experiment: as above
T3 construct: also called rhlCAM-1-Fc; not shown: Fc part not described
Experimental: as §1

mLox1-Fc = biological target: T4, mLox1-Fc (mouse, UniProt Q9EQ09 60-363); experiment: as above
T4 construct: also called mLoxl-Fc; not shown: Fc part not described
Experimental: as §1

rhB7-H1-Fc = biological target: T5, rhB7-H1-Fc (human, UniProt Q9NZQ7 19-239); experiment: as above
T5 construct: not shown: Fc part not described
Experimental: as §1

[3] = biological target: T2, human RAGE-Fc fusion protein; experiment: ELISA, coated hRAGE-Fc
Experimental: Antibodies were purified from hybridoma supernatants using standard procedures. Purified antibodies were evaluated for binding to soluble forms of RAGE with the use of ELISA. […] After washing and blocking with PBS containing 1% BSA and 0.05% Tween-20, 100 ul of sample (samples were in several forms: diluted immune serum, hybridoma supernatants, or purified antibodies, as indicated) was added and incubated for 1 hour at room temperature. The plates were washed with PBS, pH 7.2 and bound anti-RAGE antibodies were detected with the use of peroxidase-conjugated goat, anti-mouse IgG (H+L) (IgG) (Pierce, Rockford, Ill.) followed by incubation with the substrate TMB (BioFX Laboratories Owings Mills, Md. Laboratories). Absorbance values were determined at 450 nm in a spectrophotometer. The concentrations of monoclonal antibodies were determined with the use of peroxidase-labeled goat, anti-mouse IgG (Fcγ) (Pierce Rockford, Ill.) and a standard curve was generated by a purified, isotype-matched mouse IgG.

human RAGE, full length = biological target: T6, human RAGE, full length (human, UniProt Q15109 23-404); experiment: FACS, 293 cells infected with human RAGE adenovirus
T6 construct: Expressed on 293 or CHO cells, or endogenous in human lung sections; also called hRAGE; cell-surface hRAGE
Experimental: Human 293 cells were infected with the human and murine RAGE adenovirus. Infected cells were suspended in PBS containing 1% BSA at a density of 4×10⁴ cells/ml. Cells were incubated with 100 ul of sample (diluted immune sera, hybridoma supernatants or purified antibodies) for 30 min at 4° C. After washing, cells were incubated with PE-labeled goat, anti-mouse, IgG, F(ab′)₂ (DAKO Corporation GlostrupDenmark) for 30 min at 4° C. in the dark. Cell-associated fluorescence signals were measured by a FACScan flow cytofluorometer (Becton Dickinson) using 5000 cells per treatment. Propidium iodide was used to identify dead cells, which were excluded from the analysis.

Sequence of rhNCAM-1 (P13591 other isoform, or with tags, fused parts or gaps limits assumed): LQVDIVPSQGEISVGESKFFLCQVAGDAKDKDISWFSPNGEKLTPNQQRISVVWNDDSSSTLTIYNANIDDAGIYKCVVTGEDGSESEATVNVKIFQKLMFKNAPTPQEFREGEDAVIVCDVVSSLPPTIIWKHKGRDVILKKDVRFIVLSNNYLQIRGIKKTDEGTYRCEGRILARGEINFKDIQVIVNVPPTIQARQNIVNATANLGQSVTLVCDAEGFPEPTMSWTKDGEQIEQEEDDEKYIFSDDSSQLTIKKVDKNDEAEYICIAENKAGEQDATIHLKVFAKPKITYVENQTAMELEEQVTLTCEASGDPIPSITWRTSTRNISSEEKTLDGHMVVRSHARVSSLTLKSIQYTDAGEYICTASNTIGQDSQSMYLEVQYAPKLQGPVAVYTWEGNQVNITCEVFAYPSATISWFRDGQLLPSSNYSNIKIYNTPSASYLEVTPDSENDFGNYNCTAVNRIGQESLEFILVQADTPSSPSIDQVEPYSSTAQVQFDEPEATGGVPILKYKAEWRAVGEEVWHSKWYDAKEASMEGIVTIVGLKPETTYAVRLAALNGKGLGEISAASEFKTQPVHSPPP
T5 sequence (Q9NZQ7 19-239): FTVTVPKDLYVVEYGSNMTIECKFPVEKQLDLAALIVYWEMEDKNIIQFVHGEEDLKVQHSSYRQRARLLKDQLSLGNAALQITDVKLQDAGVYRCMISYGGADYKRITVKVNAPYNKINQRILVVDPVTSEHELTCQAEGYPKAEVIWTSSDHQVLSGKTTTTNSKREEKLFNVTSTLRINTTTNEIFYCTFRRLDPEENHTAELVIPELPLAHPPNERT
T4 sequence (Q9EQ09 60-363): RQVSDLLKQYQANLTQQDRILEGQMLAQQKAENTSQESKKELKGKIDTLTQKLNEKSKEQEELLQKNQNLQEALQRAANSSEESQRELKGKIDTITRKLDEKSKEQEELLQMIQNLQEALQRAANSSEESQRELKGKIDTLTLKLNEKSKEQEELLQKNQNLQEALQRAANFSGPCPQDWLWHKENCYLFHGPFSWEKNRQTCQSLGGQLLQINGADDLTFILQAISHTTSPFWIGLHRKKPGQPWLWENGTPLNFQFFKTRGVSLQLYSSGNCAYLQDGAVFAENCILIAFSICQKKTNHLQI
T3 sequence (P05362 28-480): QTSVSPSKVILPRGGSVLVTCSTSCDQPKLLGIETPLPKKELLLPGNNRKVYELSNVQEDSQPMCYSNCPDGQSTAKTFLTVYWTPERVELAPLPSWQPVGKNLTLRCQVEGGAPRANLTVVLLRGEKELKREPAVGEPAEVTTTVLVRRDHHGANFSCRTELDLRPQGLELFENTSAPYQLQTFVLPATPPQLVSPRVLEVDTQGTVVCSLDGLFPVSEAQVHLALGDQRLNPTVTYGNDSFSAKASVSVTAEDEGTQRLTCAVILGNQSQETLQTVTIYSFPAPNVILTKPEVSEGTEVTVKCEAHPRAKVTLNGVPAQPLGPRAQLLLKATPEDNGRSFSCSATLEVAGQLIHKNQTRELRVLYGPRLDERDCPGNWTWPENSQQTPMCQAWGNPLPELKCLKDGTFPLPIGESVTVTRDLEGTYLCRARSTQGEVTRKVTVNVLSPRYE
Sequence of rhTLR4 (C-terminal His tag) (O00206 24-631 limits assumed): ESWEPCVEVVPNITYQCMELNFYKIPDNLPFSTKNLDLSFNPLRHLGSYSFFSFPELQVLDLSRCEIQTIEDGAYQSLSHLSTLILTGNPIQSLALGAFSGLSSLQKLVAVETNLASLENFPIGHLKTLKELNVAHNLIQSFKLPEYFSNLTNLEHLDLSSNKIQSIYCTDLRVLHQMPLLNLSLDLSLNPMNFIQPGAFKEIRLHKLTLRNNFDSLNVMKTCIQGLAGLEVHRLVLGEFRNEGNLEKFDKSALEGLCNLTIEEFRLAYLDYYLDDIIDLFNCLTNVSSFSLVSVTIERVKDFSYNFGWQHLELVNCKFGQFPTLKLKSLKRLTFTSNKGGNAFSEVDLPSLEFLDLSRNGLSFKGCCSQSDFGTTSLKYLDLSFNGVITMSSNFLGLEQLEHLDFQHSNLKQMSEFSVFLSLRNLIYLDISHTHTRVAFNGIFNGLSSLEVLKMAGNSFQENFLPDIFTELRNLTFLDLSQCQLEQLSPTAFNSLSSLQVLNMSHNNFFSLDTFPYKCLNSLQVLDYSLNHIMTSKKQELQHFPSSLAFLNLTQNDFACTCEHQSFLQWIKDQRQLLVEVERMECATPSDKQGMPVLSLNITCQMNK

Binder	OD450 (hLox1-Fc)	OD450 (rhNCAM-1)	OD450 (rhVCAM-1)	OD450 [1]	OD450 [2]	OD450 (rhICAM-1-Fc)	OD450 (mLox1-Fc)	OD450 (rhB7-H1-Fc)	binding result [3]	binding result (human RAGE, full length)
XT-M4-hVH-V2.0-2m/hVL-V2.10 (antibody, V domains shown, '2m' is not explained; also called XT-M4-hVH-2.0-2m/hVL-V2.10) VH: EVQLVESGGGLVQPGGSLRLSCAASGFTFNNYWMTWVRQAPGKGLEWVASIDNSGDNTYYPDSVKDRFTISRDNAKNSLYLQMNSLRAEDTAVYYCARGGDITTGFDYWGQGTLVTVSS VL: DIQMTQSPSSLSASVGDRVTITCRASQDVGIYVNWFQQKPGKAPKRLIYRATNLADGVPSRFSGSGSGTDFTLTISSLQPEDFATYYCLEFDEHPLTFGGGTKVEIK	0.007	0.004	0.01	3.81	0.001	0.007	0.016	0.01	–	–
XT-M4-hVH-V2.0-2m/hVL-V2.11 (antibody, V domains shown, '2m' is not explained) VH: EVQLVESGGGLVQPGGSLRLSCAASGFTFNNYWMTWVRQAPGKGLEWVASIDNSGDNTYYPDSVKDRFTISRDNAKNSLYLQMNSLRAEDTAVYYCARGGDITTGFDYWGQGTLVTVSS VL: DIQMTQSPSSLSASVGDRVTITCRASQDVGIYVNWFQQKPGKAPRRLIYRATNLADGVPSRFSGSRSGTDFTLTISSLQPEDFATYYCLEFDEHPLTFGGGTKVEIK	0.022	0.011	0.012	3.83	0.003	0.004	0.01	0.009	–	–
XT-H3 (antibody, mouse IgG1, V domains shown, also called 1hRAGEP3/18) VH: QVQLQQPGSELVRPGASVKLSCKTSGYTFTNYWMHWVKQRHGQGLEWIGNLYPGSGRTNYDEKFKSKVTLTEDTSSSTAYMHLSNLTSEDSAVYYCTSLRRGFVYWGQGTLVTVSA VL: NIVMTQSPEYMSMSFGERVTLTCKASENVGSYVSWYQQKSEQSPKLLIYGASNRYTGVPDRFTGSGSATDFTLTITSVQAEDLADYHCGQTYTYPYTFGGGTKLEIK	–	–	–	–	–	–	–	–	binds	binds
XT-H7 (antibody, mouse IgG1, V domains shown, also called 1hRAGEP3/66) VH: QVQLKESGPGLVAPSQSLSITCTVSGFSLTNYGVHWVRQPPGKGLEWLGVMWAGGSTTYNSALMSRLSISKDNSKSQVFLKMNSLQTDDTAMYYCARYGNYAMDYWGQGTSVTVSS VL: DIQMTQSPSSLSASLGGKVTITCKASQDIYKYIAWYQHKPGKGPRLLIHYTSTLQPGIPSRFSGSGSGRDYSFSISNLEPEDIATYYCLRYDNLYTFGGGTKLEIK	–	–	–	–	–	–	–	–	binds	binds
